Columns and labels:
[1] = target: Plasmodium falciparum lactate dehydrogenase (PfLDH) (Plasmodium falciparum, UniProt Q76NM3 1-316); assay: colorimetric AuNP/CTAB aggregation assay (A650/A520); 4 nM CTAB, 20 nM aptamer; LOD 2.94 pM (not a Kd); 20 mM HEPES pH 7.4, room temperature, 20 nM aptamer with protein 20 min, then 4 nM CTAB 20 min, then AuNPs 5 min (200 uL final); details: protein: recombinant; chain copies: 4
fibrinogen = fibrinogen (human, UniProt P02671-2;P02675;P02679-2 20-644;31-491;27-437); assay: colorimetric AuNP/CTAB aggregation assay (A650/A520); 1 uM protein, 4 nM CTAB; 20 mM HEPES pH 7.4, room temperature, 20 nM aptamer with protein 20 min, then 4 nM CTAB 20 min, then AuNPs 5 min (200 uL final); details: protein: commercial; chain copies: 2;2;2
Sequence of fibrinogen (P02671 other isoform, or with tags, fused parts or gaps, chain 1 of 3): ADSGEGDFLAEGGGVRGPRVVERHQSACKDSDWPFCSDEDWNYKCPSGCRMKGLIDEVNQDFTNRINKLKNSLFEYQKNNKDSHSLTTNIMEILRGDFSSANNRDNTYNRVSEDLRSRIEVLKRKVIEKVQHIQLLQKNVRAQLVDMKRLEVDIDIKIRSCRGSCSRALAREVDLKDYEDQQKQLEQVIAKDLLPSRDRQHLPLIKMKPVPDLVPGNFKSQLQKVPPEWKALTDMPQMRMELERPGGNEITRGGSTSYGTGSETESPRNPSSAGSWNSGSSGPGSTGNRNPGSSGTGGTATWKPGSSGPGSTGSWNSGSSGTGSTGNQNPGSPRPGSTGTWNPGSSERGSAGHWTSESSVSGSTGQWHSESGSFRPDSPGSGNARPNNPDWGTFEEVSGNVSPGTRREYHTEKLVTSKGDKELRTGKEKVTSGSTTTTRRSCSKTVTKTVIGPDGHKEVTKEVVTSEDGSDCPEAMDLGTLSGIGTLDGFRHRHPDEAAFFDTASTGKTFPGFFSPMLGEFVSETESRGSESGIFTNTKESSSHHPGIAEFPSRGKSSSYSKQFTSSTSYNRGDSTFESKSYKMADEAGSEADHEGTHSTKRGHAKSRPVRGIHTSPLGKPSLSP
Sequence of fibrinogen (P02675 31-491, chain 2 of 3): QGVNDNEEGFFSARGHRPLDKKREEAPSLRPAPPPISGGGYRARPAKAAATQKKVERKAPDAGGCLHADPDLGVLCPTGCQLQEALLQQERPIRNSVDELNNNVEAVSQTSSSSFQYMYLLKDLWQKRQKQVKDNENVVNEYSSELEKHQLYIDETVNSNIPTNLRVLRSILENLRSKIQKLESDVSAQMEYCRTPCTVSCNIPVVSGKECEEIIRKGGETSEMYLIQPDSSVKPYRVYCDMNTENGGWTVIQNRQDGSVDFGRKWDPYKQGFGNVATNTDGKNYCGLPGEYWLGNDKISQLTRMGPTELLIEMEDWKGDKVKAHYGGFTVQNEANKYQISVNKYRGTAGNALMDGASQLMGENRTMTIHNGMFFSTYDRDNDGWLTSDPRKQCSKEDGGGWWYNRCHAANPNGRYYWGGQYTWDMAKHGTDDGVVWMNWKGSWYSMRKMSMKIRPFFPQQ
Sequence of fibrinogen (P02679 other isoform, or with tags, fused parts or gaps, chain 3 of 3): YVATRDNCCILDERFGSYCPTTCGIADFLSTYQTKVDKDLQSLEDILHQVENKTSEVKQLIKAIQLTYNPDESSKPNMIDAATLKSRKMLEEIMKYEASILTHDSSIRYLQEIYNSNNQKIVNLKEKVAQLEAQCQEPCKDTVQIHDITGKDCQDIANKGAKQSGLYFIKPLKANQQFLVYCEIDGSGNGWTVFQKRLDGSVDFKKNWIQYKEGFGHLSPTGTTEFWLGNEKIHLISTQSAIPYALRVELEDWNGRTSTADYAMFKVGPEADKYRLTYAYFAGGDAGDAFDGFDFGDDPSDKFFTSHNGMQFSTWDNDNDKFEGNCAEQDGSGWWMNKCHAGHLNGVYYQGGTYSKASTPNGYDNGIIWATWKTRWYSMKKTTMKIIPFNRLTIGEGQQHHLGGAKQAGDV

[2] = target: human lactate dehydrogenase A chain (hLDHA) (human, UniProt P00338 2-332); assay: as above
[3] = target: Plasmodium vivax lactate dehydrogenase (PvLDH) (Plasmodium vivax, UniProt Q4PRK9 1-316); assay: colorimetric AuNP/CTAB aggregation assay (A650/A520); details: protein: recombinant; chain copies: 4

## GTTCGATTGGATTGTGCCGGAAGTGCTGGCTCGAAC (ssDNA) [pL1 aptamer]
[1]
  binding result: binds
fibrinogen
  binding result: no binding
[2]
  binding result: no binding
[3]
  binding result: binds
